From patent US9540424B2, “Serum albumin binding molecules” (BRISTOL-MYERS SQUIBB COMPANY, priority 2010, dated 2017)

How the values were obtained:
[1] = system: parental HEK cells, which do not express β-klotho; assay: pERK 1/2 specificity assay in parental HEK cells; format: cell-based, human
Source text: FGF1 was used as a positive control in those experiments.

[2] = system: HEK cells stably expressing human β-klotho; assay: HEK β-Klotho pERK 1/2 assay; format: cell-based; details: same dilutions as in parental HEK cells
Protocol: FGF21 induces ERK phosphorylation in the presence of β-klotho. Accordingly, the present HEK-β-klotho assay system was constructed to examine the functional activity of the FGF21-SABA fusions in vitro. Specifically, in vitro activity, potency (EC50) and efficacy (as a percentage of maximal activity observed from an FGF21 molecule that is not fused to a SABA), were determined for the SABA1-FGF21v1 (SEQ ID NO: 132) fusion protein, as measured in the HEK β-Klotho expressing stable cell pERK 1/2 assay using the non-fused His-tagged FGF21 (“FGFv1”; SEQ ID NO: 125) as a comparator.
A HEK cell line stably expressing human β-klotho was constructed. The human β-klotho construct encoded the full length protein under the control of a CMV promoter with a C-terminal FLAG tag. HEK 293 cells were transfected with the linearized cDNA using Lipofectamine 2000 (Invitrogen catalog #11668027) following the manufactures protocol using standard techniques. Positive clones were isolated after 14 days of selection in 600 ug/ml (Invitrogen catalog #10131) of geneticin in Dulbecco's Modified Eagle Medium with high glucose containing L-Glutamine, Hepes (Invitrogen catalog #12430054) and 10% FBS (HyClone catalog # SH30071). Positive stable clones were further characterized by Western Blot analysis and p-ERK activation by AlphaScreen (Perkin Elmer catalog # TGRES50K) analysis.
HEK cells stably expressing human β-klotho were plated at 20,000 cells/well in 96 well tissue culture plates in DMEM high glucose media (Gibco) containing 10% (v/v) FBS (Hyclone) and 600 μg/ml G418 (Gibco). The following day, the media was removed and replaced with DMEM high glucose media without serum and the cells were incubated overnight. The morning of the third day the serum free media was removed and the cells were incubated for a total of seven minutes with dilutions of the proteins made in PBS containing 3% (w/v) fatty acid free human serum albumin. Dilutions were tested in triplicate, one well on each of three plates. At the end of the seven minute incubation, the protein dilutions were removed and 100 μl of 1x AlphaScreen lysis buffer (Perkin-Elmer) was added per well and allowed to incubate with shaking for approximately 10-15 minutes. The plates containing the cellular lysates were frozen at −80° C. for at least 30 minutes or until ready to assay. Four μl from each well of thawed cell lysate was analyzed for pERK 1/2 using the Surefire AlphaScreen pERK 1/2 kit (Perkin Elmer) using 384 well white Proxiplates (Perkin Elmer) following the manufacturer's directions. Plates were incubated at room temperature for two hours in the dark and then read on an Envision 2103 Multiplate reader (Perkin Elmer). Data were analyzed using Graph Pad Prism software using a non-linear regression analysis.

[3] = target: T1, HSA (Homo sapiens, UniProt P02768); details: pH <6.0
Protocol: (§4) In addition, binding to albumin was carried out under various pH conditions ranging from pH 5.5 to pH 7.4.

[4] = target: T2, MuSA (Mus musculus, UniProt P07724); assay: Biacore kinetics of SABAs on immobilized serum albumin: MuSA; format: binding
T2 sequence (P07724 25-608): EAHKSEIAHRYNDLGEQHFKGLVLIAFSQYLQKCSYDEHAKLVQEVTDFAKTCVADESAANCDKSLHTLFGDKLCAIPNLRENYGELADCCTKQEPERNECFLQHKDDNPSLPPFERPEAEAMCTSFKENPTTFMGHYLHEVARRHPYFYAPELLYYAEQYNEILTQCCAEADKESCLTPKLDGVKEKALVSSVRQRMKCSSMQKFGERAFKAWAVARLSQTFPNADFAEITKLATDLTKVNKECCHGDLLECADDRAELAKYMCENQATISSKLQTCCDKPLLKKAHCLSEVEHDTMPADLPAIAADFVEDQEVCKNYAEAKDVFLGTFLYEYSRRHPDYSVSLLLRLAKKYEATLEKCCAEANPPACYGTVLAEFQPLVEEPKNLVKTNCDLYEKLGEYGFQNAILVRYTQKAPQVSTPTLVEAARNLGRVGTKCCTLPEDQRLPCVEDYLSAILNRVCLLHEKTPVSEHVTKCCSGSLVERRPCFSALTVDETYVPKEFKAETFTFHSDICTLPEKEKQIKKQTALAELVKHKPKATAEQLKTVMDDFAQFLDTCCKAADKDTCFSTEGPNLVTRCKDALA

[5] = target: RhSA (Macaca mulatta, UniProt Q28522); assay: Biacore kinetics of SABAs on immobilized serum albumin: RhSA; format: binding, rhesus
RhSA, sequence (Q28522 17-600): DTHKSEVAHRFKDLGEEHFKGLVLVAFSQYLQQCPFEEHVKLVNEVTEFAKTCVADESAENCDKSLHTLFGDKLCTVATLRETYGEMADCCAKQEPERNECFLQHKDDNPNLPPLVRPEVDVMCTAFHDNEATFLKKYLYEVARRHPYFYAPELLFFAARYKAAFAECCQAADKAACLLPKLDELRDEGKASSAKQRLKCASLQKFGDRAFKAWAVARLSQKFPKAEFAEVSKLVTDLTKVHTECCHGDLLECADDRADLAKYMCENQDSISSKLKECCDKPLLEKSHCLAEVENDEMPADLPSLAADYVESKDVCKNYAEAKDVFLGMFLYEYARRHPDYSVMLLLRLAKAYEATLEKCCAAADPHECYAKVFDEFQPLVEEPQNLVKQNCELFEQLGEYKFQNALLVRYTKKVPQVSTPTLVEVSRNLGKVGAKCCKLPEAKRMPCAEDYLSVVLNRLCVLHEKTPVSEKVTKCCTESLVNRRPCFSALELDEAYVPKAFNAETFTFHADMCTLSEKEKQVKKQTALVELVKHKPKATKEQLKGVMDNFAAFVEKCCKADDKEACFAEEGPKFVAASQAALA
Protocol: as §4

[6] = Differential Scanning calorimetry (DSC) thermostability of midscaled SABAs; format: physicochemical; details: 1 mg/ml solution, 5° C. to 95° C. at 1 degree per minute
Protocol: Differential Scanning calorimetry (DSC) analyses of the midscaled SABAs were performed to determine their respective Tm's. A 1 mg/ml solution was scanned in a N-DSC II calorimeter (calorimetry Sciences Corp) by ramping the temperature from 5° C. to 95° C. at a rate of 1 degree per minute under 3 atm pressure. The data was analyzed vs. a control run of the appropriate buffer using a best fit using Orgin Software (OrginLab Corp).

[7] = Single dose pharmacokinetics of SABA1.1 and SABA5.1 in cynomolgus monkeys; format: in vivo; details: 1 mpk IV, Mean, N 2
Protocol: The pharmacokinetics were evaluated using a quantitative ELISA-based assay that was developed to detect the Adnectin™ in plasma samples.

[8] = Analytical size exclusion chromatography (SEC) of SABAs; format: physicochemical; details: midscaled material
Protocol: Size exclusion chromatography (SEC) was performed on the SABAs resulting from the HTPP. SEC of HTPP derived material was performed using a Superdex 200 5/150 or Superdex 75 5/150 column (GE Healthcare) on an Agilent 1100 or 1200 HPLC system with UV detection at A214 nm and A280 nm and with fluorescence detection (excitation=280 nm, emission=350 nm). A buffer of 100 mM sodium sulfate, 100 mM sodium phosphate, 150 mM sodium chloride, pH 6.8 at appropriate flow rate of the SEC column employed. Gel filtration standards (Bio-Rad Laboratories, Hercules, Calif.) were used for molecular weight calibration.
Midscale expression and purification yielded highly pure and active Adnectins™ that were expressed in a soluble form and purified from the soluble fraction of the bacterial cytosol.
Standard size exclusion chromatography (SEC) was performed on the candidate SABAs resulting from the midscale process. SEC of midscaled material was performed using a Superdex 200 10/30 or on a Superdex 75 10/30 column (GE Healthcare) on an Agilent 1100 or 1200 HPLC system with UV detection at A214 nm and A280 nm and with fluorescence detection (excitation=280 nm, emission=350 nm). A buffer of 100 mM sodium sulfate, 100 mM sodium phosphate, 150 mM sodium chloride, pH 6.8 at appropriate flow rate of the SEC column employed. Gel filtration standards (Bio-Rad Laboratories, Hercules, Calif.) were used for molecular weight calibration.

[9] = Half-life of HSA and of SABA1-4 with or without HSA in mice (ELISA, WinNonlin); format: in vivo, Ncr nude female mice
Protocol: The pharmacokinetic parameters of each Adnectin™ were determined using non-compartmental modeling with WinNonlin software.

[10] = target: T2, MuSA; assay: SPR (Biacore T100) kinetics of FGF21-SABA1 fusions: MuSA; format: binding, murine; set-up: purchased Sigma A3559; details: 37° C., up to 1 uM analyte
Protocol: (§1) The binding competency and thermodynamic characterization of FGF21-SABA fusion variants to human serum albumin were performed using Isothermal Titration calorimetry on a Microcal VP-ITC instrument (Microcal Inc. Amherst Mass., USA). […] The detailed experimental conditions are described below.
(§2) For the calorimetry assay, the FGF21-SABA variant SABA1-FGF21v1 (SEQ ID NO: 132) was used. […] For the SPR studies, SABA1-FGF21v1 and SABA1-FGF21v3 (SEQ ID NO: 134) were examined.
(§3) Serum albumins were dissolved in PBS buffer (10 mM sodium phosphate, 130 mM sodium chloride, pH 7.1) to a concentration of 10 mg/ml, and subsequently diluted to 8-10 μg/ml in 10 mM sodium acetate pH 5.0 for immobilization. Serum albumins were immobilized on a Series S CMS sensor chip using standard ethyl(dimethylaminopropyl) carbodiimide (EDC)/N-hydroxysuccinimide (NHS) chemistry in HBS-EP+ running buffer at 25° C., following general manufacturer guidelines. Flow cell 1 was activated with EDC/NHS and blocked with ethanolamine. […] Kinetic experiments were performed in PBS buffer containing 0.05% tween-20 (running buffer) at either 25° C. or 37° C. […] These samples were injected across flow cells 1-4 for 300 s, with a 420 s dissociation time, at flow rates of 30 μl/min or 60 μl/min to check for mass transfer limitation. All surfaces were regenerated with 2 pulses of 10 mM glycine pH 2.0 at 30 μl/min for 30 s. Raw sensograms were “double-referenced” by subtracting flow cell 1 data from flow cell 2, 3 or 4 data, and then subtracting a separate buffer cycle from each sensogram. The double-referenced sensogram data was fitted to a 1:1 Langmuir model using Biacore T100 Evaluation software version 2.0.2 to determine the association rate constant (ka), the dissociation rate constant (kd), and the equilibrium dissociation constant (KD).

[11] = target: T3, CySA (Macaca fascicularis, UniProt A2V9Z4); assay: SPR (Biacore T100) kinetics of FGF21-SABA1 fusions: CySA; format: binding, cynomolgous monkey; details: 37° C.
T3 construct: purchased Equitech-Bio CMSA
T3 sequence (A2V9Z4 25-608): as the sequence (Q28522 17-600) above
Protocol: as §1, §2, §3

[12] = Pharmacokinetics of His-tagged FGF21 and SABA-FGF21 fusions in monkeys; format: in vivo, cynomolgus monkeys; details: monkeys
Protocol: Various in vivo studies were conducted in mice and monkeys to characterize the pharmacokinetics of His-tagged FGF21 and SABA1-FGF21v1. An ELISA-based ligand binding assay was used to measure the His-tagged FGF21 and SABA1-FGF21v1 in all mouse and monkey plasma samples.
Following subcutaneous administration, His-tagged FGF21 was well absorbed.
Following subcutaneous administration, SABA1-FGF21v1 was well absorbed.

[13] = target: T1, HSA; assay: SPR (Biacore T100) kinetics of FGF21-SABA1 fusions: HSA; format: binding; details: 37° C.
Protocol: as §1, §2, §3

[14] = co-injected with HSA (3-4 molar excess), tail vein
[15] = intravenous, His-tagged FGF21 0.5 mg/kg, SABA1-FGF21v1 0.08 mg/kg

In the case of “FGF1: positive control in the pERK specificity assays [reference compound]”, the “stimulation of pERK 1/2 levels in parental HEK cells” value [1] is reported as “did” and the “activity in HEK β-klotho stable cells (specificity experiment)” value [2] is reported as “showed activity”.

B1: SABA5.1: His-tagged SABA5 sequence (protein)
chain: MGVSDVPRDLEVVAATPTSLLISWEDDSYYSRYYRITYGETGGNSPVQEFTVPSDLYTATISGLKPGVDYTITVYAVTYDVTDLIMHEPISINYRTEIDKPSQHHHHHH
modifications: His6 tag
In the case of B1, the “Comments: decrease in KD observed at pH <6.0” value [3] is reported as >2-fold decrease in KD observed at, the “cross reaction with MuSA” value [4] is reported as “did not cross react” and the “Comments: binding affinity for RhSA” value [5] is reported as “Poor binding affinity for RhSA”. For the same molecule, the “cross reaction with RhSA” value [5] was “cross reacted”, the “DSC (Tm)” value [6] was 70.1 °C and the “AUCall” value [7] was 246.882 µg·h/mL. The “Cl_obs” value [7] was 4.089 mL/h/kg, the “Cmax” value [7] was 17358 ng/mL and the “HL_Lambda_z” value [7] was 12.186 h. The “Vz_obs” value [7] was 0.072507 L/kg, the “SEC Dimer (%)” value [8] was 12% and the “SEC Monomer (%)” value [8] was 88%. The “PK (T½) Mice” value [9, 14] was 276 min.

B2: SABA1-FGF21v3: SABA1-FGF21 fusion, SEQ ID NO: 134; 299 aa; DNA SEQ ID NO: 177 (protein)
chain: MGVSDVPRDLEVVAATPTSLLISWHSYYEQNSYYRITYGETGGNSPVQEFTVPYSQTTATISGLKPGVDYTITVYAVYGSKYYYPISINYRTEIDKPSQHHHHHHGSGSGSGSGSGSGSPIPDSSPLLQFGGQVRQRYLYTDDAQQTEAHLEIREDGTVGGAADQSPESLLQLKALKPGVIQILGVKTSRFLCQRPDGALYGSLHFDPEACSFRELLLEDGYNVYQSEAHGLPLHLPGNKSPHRDPAPRGPARFLPLPGLPPALPEPPGILAPQPPDVGSSDPLSMVGPSQGRSPSYAS
With B2 the “binding to MuSA” value ([10]; flow rate 30 μl/min) was “no binding observed up”, the “binding to MuSA” value ([10]; flow rate 60 μl/min) was “no binding observed up” and the “ka” value ([11]; flow rate 30 μl/min) was 5310 M⁻¹ s⁻¹. For the same molecule, the “kd” value ([11]; flow rate 30 μl/min) was 0.0117 s⁻¹, the “ka” value ([11]; flow rate 60 μl/min) was 4380 M⁻¹ s⁻¹ and the “kd” value ([11]; flow rate 60 μl/min) was 0.0136 s⁻¹. For the same molecule, the “increase of t1/2 compared to His-tagged FGF21” value [12] was about 27 fold, the “CL (total body plasma clearance, CLTp)” value [12, 15] was 2.4 mL/h/kg and the “T½ (terminal half-life)” value [12, 15] was 52.7 h. For the same molecule, the “Vdss (steady-state volume of distribution, Vss)” value [12, 15] was 0.11 L/kg, the “ka” value ([13]; flow rate 30 μl/min) was 6160 M⁻¹ s⁻¹ and the “kd” value ([13]; flow rate 30 μl/min) was 0.00103 s⁻¹. For the same molecule, the “ka” value ([13]; flow rate 60 μl/min) was 5870 M⁻¹ s⁻¹ and the “kd” value ([13]; flow rate 60 μl/min) was 0.00107 s⁻¹.

B3: SABA3.1: His-tagged SABA3 sequence (protein)
chain: MGVSDVPRDLEVVAATPTSLLISWSNDGPGLSYYRITYGETGGNSPVQEFTVPSSQTTATISGLKPGVDYTITVYAVSYYTKKAYSAGPISINYRTEIDKPSQHHHHHH
modifications: His6 tag
In the case of B3, the “cross reaction with MuSA” value [4] is reported as “did not cross react”, the “cross reaction with RhSA” value [5] is reported as “cross reacted” and the “DSC (Tm)” value [6] is reported as 65.2 °C. For the same molecule, the “SEC Dimer (%)” value [8] was “BLD”, the “SEC Monomer (%)” value [8] was 99% and the “PK (T½) Mice” value ([9]; co-injected with HSA) was 32 min. The “PK (T½) Mice” value [9, 14] was 31.8 min, the “half-life in mice plasma” value ([9]; injected without HSA) was 16.8 min and the “Comments: T½ in mice in words” value ([9]; mouse, in vivo) was “Poor T½ observed in mice”. The “increase in half life when co-injected with HSA” value ([9]; with HSA vs without HSA, mice) was about 2 fold.
